Reference: EP4814013A1 (Nanjing Regenecore Biotech Co., Ltd., dated 2026)
Values belong to the binder of their own block, whether it stands above or below them.

Key:
[1] = biological target: T1, human recombinant CD16a extracellular domain protein, amino acids 17-208 with F at position 176 (CD16a-F176) (human, UniProt P08637 17-208); assay: ELISA of crude VHH extracts of panned phage-library clones on coated antigen, anti-HA-HRP; positive = OD more than 5 times the control
T1 construct: range 17-208; Made in-house in 293F cells; also called human CD16a (F176)
T1 sequence (P08637 17-208 limits assumed): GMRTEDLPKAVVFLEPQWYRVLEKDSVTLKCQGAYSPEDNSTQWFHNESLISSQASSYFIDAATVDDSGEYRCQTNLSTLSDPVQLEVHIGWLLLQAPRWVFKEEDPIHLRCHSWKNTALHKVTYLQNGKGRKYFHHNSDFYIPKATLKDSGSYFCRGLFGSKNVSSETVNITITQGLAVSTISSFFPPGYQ

[2] = biological target: T2, human recombinant CD16a extracellular domain protein, amino acids 17-208 with V at position 176 (CD16a-V176) (human, UniProt P08637 17-208); assay: as above
T2 construct: range 17-208; Made in-house in 293F cells; also called human CD16a (V176)
T2 sequence (P08637 17-208 F176V limits assumed): as the sequence (P08637 17-208 limits assumed) above, with F160V counted along it

[3] = biological target: T3, human recombinant FOLR1 extracellular domain protein, amino acids 25-233 (human, UniProt P15328 25-233); assay: phage display panning and clone ELISA as in Examples 1-4
T3 construct: range 25-233; Made in-house in 293F cells
T3 sequence (P15328 25-233 limits assumed): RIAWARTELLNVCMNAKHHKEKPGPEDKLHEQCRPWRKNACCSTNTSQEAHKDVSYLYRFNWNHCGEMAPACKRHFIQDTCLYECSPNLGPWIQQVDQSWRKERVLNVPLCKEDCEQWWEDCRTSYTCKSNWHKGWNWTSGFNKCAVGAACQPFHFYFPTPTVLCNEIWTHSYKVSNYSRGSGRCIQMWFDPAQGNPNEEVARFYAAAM

[4] = biological target: T4, human recombinant Nkp46 extracellular domain protein, amino acids 22-254 (human, UniProt O76036 22-254); assay: as above
T4 construct: range 22-254; Made in-house in 293F cells
T4 sequence (O76036 22-254 limits assumed): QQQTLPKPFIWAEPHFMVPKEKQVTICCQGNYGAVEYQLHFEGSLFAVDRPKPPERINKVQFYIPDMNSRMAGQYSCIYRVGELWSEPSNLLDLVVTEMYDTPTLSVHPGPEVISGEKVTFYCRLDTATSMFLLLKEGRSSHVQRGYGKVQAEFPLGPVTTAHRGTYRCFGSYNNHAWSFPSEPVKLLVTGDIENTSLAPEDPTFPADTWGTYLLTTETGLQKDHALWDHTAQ

B1: anti-CD16a single-domain antibody clone 4B5 (VHH, crude extract from pMECS) (VHH)
VHH: QVQLVESGGGLVQAGGSLRLSCAASGGTFRIYAMGWFRQAPGKEREFVGSISMMRGITDYAESVKGRFTISRDNAKFTMYLQMNSLKSEDTAVYYCAKAVDKSPYGGWGWGPYDDWGQGTQVTVSS
notes: Crude antibody extract of an E. coli TG1 clone; not shown: C-terminal tag(s) from the pMECS vector (HA tag detected with anti-HA-HRP, tag for nickel-column purification)
- binding result [1]: binds

B2: anti-CD16a single-domain antibody clone 14A3 (VHH, crude extract from pMECS) (VHH)
VHH: QVQLVESGGGLVQPGGSLRLSCEVSGRTFSYLALGWFRQAPGKEREFVAAASWGGGSTGYADSVKGRFAISRDNVKNTQYLQMNSLKPEDTAVYYCVVGRRFKGSVYYTPNEYEYWGQGTQVTVSS
notes: as for B1
- binding result [2]: binds

B3: anti-CD16a single-domain antibody clone 23D1 (VHH, crude extract from pMECS) (VHH)
VHH: QVQLVESGGGLVQAGGSLRLSCAVSGRTFSYLAMGWFRQAPGKEREFVAASSWGGGTSGYADSVKGRFAISRDNAKNTQYLQMNSLKPEDTAVYYCVVGRRFKGSVYYTPNEYEYWGQGTQVTVSS
notes: as for B1
- binding result [2]: binds

Now from value to binder:

- binding result [3]: binds
B4: FOLR1-4F4 single-domain antibody (VHH)
VHH: QVQLVESGGGSVQAGGSLRLSCAASDGTYRRYCMGWFRQAPGKEREKVAAIYTGDGTTYYADSVKGRFTISQENAKNTMYLQMNSLKPEDTAMYYCAADRSGCSVAWSYSSFEDWGQGTQVTVSS
notes: Parental (not humanized) clone as screened

- binding result [2]: binds
B5: anti-CD16a single-domain antibody clone 13G6 (VHH, crude extract from pMECS) (VHH)
VHH: QVQLVESGGGLVQPGGSLRLSCAASGRTFRIYAMGWFRQAPGKEREFVGSIRLMRGITDYADSVKGRFTISRDNAKFTMYLQMNTLKPEDTAVYYCAAVGSGGDFYTPSTSGEYRYWGQGTQVTVSS
notes: as for B1

- binding result [1]: binds
B6: anti-CD16a single-domain antibody clone 15E2 (VHH, crude extract from pMECS) (VHH)
VHH: QVQLVESGGGLVQAGDSLRLSCAASGGTFRIYAMGWFRQAPGKEREFVGSISMMRGITDYAESVKGRFTISRDNAKFTMYLQMNTLKPEDTAVYYCAIRERPPPMGWGLAGISYDYWGQGTQVTVSS
notes: as for B1

- binding result [4]: binds
B7: Nkp46-7F10 single-domain antibody (VHH)
VHH: QVQLVESGGGLVQAGGSLRLSCAASGRTFSSYAMGWFRQAPGKEREFVAGISWSGDSTYYADSVKGRFTISRDNAKNTVGLQMNSLKPEDTAVYYCAAASGQVQTVVVVTDRWYHYWGQGTQVTVSS
notes: as for B4
